Measurements: US12358959B2, “Compositions and methods for oligodendrocyte development” (CHILDREN'S MEDICAL CENTER CORPORATION, priority 2016, dated 2025)
Values belong to the molecule of their own block, whether it stands above or below them.

Tests used:
[1] = biological target: Transglutaminase 2 (Tgm2), mouse, endogenous (mixed glial cell lysate / microglia-derived) (mouse) (UniProt P21981); test: streptavidin pull-down of biotinylated GPR56^N-mFc from mixed glial cell lysate, tryptic peptide mass spectrometry
[2] = biological target: Plectin (Plec), mouse, endogenous (mixed glial cell lysate) (mouse) (UniProt Q9QXS1); test: as above
GPR56^N = biological target: T1, GPR56^N (Mus musculus, UniProt Q8K209); test: In vitro biotinylation/proteomics pull-down from mixed glial cell lysate with mass spectrometry; conditions: peptide sequences specific for binding to GPR56^N
T1 construct: Using the soluble N-terminal fragment of GPR56 (GPR56^N); made in house
Excerpt: To identify the ligand of GPR56 in OPCs, an in vitro biotinylation/proteomics approach was employed using single-step capture on streptavidin beads to purify the binding partner(s) of GPR56 (FIGS. 2A-2B). Proteins with more than five identified tryptic peptides in the Mass Spectrometry (MS) output from three independent experiments are listed at Table 1.
(§1) GPR56^N and GPR56^Ndel fusions proteins with either mFc or hFc tag were generated as previously described (Luo et al. Proc Natl Acad Sci USA 108, 12925-12930, 2011). BirA enzyme was used to in vitro biotinylate GPR56^N-mFc-biotag protein as previously described (De Laurenzi and Melino Mol Cell Biol 21, 148-155, 2001). Mixed glial cell lysate was incubated with biotinylated GPR56^N protein in lysis buffer [20 mM Hepes (pH 7.3), 150 mM NaCl, and 5 mM MgCl2] with protein inhibitor mixture (Roche Molecular Biochemicals) and 1% Brij 96 (Fluka). Streptavidin beads (Sigma) were used to affinity purify immunocomplexes. GPR56-associated proteins were eluted in 2×SDS loading buffer, subjected to SDS/PAGE. The whole lane was used for MS at the Taplin Biological Mass Spectrometry at Havard Medical School. MS data were searched against the mouse International Protein Index (IPI mouse 339) database using the protein identification software Mascot (v2.2.04, Matrix Sciences) (Luo et al. Proc Natl Acad Sci USA 108, 12925-12930, 2011).
as §1, with “al.,” for “al.”, “(Stacey et al., J” for “(De Laurenzi and Melino Mol Cell”, “Chem 277, 29283-29293, 2002).” for “21, 148-155, 2001).”, “(20” for “[20”, “[pH 7.3],” for “(pH 7.3),”, “MgCl2)” for “MgCl2]”

[3] = test system: oligodendrocyte precursors (OPCs); test: OPC proliferation on laminin-111 or fibronectin with recombinant TG2; assay type: cell-based, mouse
Excerpt: P=0.70 (control vs. TG2-W241A); **P=0.0088 (TG2 vs. TG2-W241A). […] FIG. 16D depicts a Western blot of active RhoA (top panel) and total RhoA (bottom panel) in the corpus callosum (CC) of Tgm2^+/+ and Tgm2^−/− mice. FIG. 16E is a graph showing that the relative level of active RhoA to total RhoA was diminished in the CC of Tgm2^−/− mice compared to […]. *P=0.0207, unpaired t-test, N=3 per genotype. FIG. 16F depicts a Western blot of GPR56^N in the supernatant of HEK 293T cell culture after exposed to either TG2 or TG2+laminin-111 (top panel), GTP-RhoA (middle panel) and total RhoA (lower panel) in HEK 293T cell pellet exposed to either TG2 or TG2+laminin-111. FIG. 16G is a graph showing that released GPR56 NTF was increased in the presence of both TG2 and laminin-111. ***P=0.0002; One-way ANOVA followed by Tukey post-hoc test, F (2,6)=49.66, n.s. P=0.95 (control vs. TG2); ***P=0.0003 (control vs. TG2+laminin-111); ***P=0.0004 (TG2 vs. TG2+laminin-111); N=3 per treatment group. FIG. 16H is a graph showing that the relative level of GTP-RhoA to total RhoA was increased in the presence of both TG2 and laminin-111, corresponding to the increased GPR56 NTF in the supernatant. **P=0.0028; One-way ANOVA followed by Tukey post-hoc test, F (2,6)=18.19, n.s. P=0.75 (control vs. TG2); **P=0.0035 (control vs. TG2+laminin-111); **P=0.0071 (TG2 vs. TG2+laminin-111) N=3 per treatment group. Error bars are mean±s.e.m in FIGS. 16E, 16G, and 16H.
To establish conditions for mechanistic investigation of the function of TG2 on OPC GPR56 during myelination and remyelination, in vitro experiments were performed with wt and Gpr56^−/− oligodendrocyte precursors (OPCs) and human recombinant TG2. […] TG2 is an extracellular protein with intrinsic transamidation activity, capable of cross-linking ECM proteins, including laminin-111 (Aeschlimann et al., J Biol Chem 267, 11316-11321, 1992; Belkin, FEBS J 278, 4704-4716, 2011). […] To confirm that TG2 regulates OPC proliferation in a GPR56-dependent manner, OPCs derived from P5 Gpr56^+/+ or Gpr56^−/− pups were cultured in the presence of laminin-111, with or without recombinant TG2. TG2-associated proliferation was attenuated in Gpr56^−/− OPCs (FIG. 16C), further supporting a GPR56-dependent TG2 function on OPC proliferation.
Oligodendrocyte precursor cells (OPCs) were isolated from mixed male and female P5-8 Gpr56^+/+ or Gpr56^−/− mouse forebrains as previously described (Wang et al., Neuron 29, 603-614, 2001; Watkins et al., Neuron 60, 555-569, 2008). Briefly, OPCs were purified by negatively selecting with mouse anti-Thy 1.2 (Serotec, Cat #MCA02R) and mouse anti-GalC (Millipore, Cat #MAB342), followed by mouse anti-04 (04 hybridoma supernatant) for positive selection. After releasing OPCs from the 04 plate by trypsinization, cells were resuspended in proliferation media containing PDGF-AA and NT-3 (PreproTech). OPCs were plated on coverslips coated with poly-D-lysine before coating with laminin I (R&D Systems, Cat #3400-010-01) or fibronectin (Millipore, Cat #341668) as previously described (Dugas et al., J Neurosci 26, 10967-10983, 2006). After 24 hr, TG2 (2 nM) was added to the cultures and incubated for an additional 24 hr before fixation with 4% PFA and staining for PDGFRα and Ki67.

Plectin (Plec), mouse, endogenous (mixed glial cell lysate) (mouse), sequence (Q9QXS1 whole entry): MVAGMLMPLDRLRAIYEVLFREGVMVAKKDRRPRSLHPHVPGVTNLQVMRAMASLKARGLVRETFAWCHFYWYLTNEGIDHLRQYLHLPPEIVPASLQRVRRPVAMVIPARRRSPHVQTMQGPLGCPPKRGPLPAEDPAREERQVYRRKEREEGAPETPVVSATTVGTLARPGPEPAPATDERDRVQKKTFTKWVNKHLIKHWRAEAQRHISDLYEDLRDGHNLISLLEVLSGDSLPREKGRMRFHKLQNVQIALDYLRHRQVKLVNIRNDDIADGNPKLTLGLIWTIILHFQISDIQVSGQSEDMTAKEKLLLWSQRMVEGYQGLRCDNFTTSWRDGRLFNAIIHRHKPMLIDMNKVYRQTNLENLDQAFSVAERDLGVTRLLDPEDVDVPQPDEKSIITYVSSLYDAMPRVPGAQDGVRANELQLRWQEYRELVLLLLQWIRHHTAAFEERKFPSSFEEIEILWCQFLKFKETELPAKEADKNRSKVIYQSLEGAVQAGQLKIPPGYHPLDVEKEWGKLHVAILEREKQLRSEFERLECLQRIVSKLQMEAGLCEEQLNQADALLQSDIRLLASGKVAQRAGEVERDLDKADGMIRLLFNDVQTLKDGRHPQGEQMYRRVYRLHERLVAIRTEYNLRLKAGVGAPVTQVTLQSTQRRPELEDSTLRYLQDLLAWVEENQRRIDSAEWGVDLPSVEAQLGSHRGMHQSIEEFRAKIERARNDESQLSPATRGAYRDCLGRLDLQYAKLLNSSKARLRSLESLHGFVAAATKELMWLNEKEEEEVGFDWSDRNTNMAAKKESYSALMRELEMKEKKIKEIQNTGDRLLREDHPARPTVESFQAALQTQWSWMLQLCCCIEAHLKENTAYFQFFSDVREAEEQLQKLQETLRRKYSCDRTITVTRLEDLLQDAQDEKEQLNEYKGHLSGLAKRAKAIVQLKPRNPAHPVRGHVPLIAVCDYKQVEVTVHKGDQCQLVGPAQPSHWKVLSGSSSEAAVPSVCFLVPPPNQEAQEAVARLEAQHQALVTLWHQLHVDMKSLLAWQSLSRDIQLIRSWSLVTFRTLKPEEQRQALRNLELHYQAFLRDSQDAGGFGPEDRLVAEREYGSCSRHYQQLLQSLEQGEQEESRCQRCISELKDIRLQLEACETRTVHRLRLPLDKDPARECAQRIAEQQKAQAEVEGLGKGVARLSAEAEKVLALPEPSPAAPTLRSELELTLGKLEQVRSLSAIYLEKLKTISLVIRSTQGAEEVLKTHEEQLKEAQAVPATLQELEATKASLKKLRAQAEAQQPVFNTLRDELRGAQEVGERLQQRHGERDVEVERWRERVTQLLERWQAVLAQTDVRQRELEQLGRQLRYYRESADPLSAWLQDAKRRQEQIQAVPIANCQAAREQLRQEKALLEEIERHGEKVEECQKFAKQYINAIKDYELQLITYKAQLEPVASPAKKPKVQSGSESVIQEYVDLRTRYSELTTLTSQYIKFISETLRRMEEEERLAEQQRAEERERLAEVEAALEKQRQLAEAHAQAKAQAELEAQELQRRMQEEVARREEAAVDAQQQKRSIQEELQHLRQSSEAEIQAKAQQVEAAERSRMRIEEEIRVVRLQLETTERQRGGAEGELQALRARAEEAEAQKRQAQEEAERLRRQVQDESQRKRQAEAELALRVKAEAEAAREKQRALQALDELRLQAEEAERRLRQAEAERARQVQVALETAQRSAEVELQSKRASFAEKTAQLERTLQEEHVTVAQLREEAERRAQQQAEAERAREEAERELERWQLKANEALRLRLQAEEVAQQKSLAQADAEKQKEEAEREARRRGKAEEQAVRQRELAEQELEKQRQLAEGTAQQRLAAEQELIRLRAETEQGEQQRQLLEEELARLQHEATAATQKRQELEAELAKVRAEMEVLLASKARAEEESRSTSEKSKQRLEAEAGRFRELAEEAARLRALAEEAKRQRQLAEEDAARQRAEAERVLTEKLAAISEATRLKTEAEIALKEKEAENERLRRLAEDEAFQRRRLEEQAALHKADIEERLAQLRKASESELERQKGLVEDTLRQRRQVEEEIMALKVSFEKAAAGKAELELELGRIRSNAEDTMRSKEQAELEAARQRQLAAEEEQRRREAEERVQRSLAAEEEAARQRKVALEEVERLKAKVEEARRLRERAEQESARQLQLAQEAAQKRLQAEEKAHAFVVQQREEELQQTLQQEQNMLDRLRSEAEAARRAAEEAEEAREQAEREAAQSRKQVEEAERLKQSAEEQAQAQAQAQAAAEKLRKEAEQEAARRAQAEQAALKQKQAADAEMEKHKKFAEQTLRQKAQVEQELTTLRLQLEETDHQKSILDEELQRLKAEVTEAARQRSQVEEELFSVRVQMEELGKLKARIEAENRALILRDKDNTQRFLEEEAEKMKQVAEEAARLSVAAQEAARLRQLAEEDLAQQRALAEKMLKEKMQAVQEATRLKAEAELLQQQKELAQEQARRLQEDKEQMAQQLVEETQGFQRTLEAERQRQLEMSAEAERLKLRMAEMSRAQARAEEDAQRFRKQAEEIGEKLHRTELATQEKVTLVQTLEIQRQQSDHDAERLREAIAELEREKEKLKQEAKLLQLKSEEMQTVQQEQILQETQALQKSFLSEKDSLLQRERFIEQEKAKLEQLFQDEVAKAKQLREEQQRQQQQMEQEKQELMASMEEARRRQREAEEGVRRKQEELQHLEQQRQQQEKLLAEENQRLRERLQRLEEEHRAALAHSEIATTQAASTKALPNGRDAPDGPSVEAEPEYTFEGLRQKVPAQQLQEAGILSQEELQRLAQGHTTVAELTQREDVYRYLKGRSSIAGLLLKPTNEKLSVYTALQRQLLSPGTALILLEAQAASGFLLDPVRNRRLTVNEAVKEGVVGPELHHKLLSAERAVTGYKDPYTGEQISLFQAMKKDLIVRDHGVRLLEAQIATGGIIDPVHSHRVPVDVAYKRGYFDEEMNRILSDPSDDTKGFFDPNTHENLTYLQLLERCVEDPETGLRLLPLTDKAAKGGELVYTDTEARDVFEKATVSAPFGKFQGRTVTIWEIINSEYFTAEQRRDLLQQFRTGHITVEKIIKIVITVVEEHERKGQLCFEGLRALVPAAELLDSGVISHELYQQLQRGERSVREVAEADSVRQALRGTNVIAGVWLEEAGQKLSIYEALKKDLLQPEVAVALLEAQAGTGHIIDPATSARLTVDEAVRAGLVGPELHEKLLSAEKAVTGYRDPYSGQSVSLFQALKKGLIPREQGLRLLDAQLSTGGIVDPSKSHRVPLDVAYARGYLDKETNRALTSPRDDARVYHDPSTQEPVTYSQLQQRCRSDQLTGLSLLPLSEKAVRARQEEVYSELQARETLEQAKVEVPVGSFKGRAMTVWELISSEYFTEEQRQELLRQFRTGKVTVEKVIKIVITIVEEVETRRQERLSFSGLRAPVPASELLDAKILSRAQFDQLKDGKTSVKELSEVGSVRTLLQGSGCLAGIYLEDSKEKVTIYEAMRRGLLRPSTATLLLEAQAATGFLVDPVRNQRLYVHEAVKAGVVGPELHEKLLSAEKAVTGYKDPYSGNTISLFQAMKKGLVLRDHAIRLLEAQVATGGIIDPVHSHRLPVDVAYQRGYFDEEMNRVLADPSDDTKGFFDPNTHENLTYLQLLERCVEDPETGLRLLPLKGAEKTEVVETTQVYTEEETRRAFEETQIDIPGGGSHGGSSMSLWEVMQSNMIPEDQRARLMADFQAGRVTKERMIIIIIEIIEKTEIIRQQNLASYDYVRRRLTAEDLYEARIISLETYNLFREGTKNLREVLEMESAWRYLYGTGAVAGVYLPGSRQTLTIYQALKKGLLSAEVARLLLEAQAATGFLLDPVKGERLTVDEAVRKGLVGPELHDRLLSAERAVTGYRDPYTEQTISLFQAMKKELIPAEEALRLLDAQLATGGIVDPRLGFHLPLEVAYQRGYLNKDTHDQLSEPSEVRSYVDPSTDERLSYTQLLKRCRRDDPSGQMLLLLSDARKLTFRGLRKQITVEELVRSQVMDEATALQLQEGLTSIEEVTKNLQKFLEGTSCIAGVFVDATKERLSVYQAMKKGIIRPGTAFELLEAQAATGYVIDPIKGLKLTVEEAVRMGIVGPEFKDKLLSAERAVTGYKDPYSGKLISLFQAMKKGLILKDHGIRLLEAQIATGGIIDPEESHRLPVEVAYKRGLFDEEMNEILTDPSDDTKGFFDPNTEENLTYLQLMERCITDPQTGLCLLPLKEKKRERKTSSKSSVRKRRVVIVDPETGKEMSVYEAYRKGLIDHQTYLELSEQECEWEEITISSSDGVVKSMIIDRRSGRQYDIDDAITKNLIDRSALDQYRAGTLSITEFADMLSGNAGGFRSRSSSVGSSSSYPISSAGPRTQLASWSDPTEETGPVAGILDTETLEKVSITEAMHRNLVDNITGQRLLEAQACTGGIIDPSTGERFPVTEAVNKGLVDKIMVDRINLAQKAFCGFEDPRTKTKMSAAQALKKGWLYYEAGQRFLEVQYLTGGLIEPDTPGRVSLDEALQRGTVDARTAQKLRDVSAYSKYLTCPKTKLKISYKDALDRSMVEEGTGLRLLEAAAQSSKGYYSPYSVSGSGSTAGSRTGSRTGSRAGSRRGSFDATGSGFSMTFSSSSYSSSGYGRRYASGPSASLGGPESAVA
T1 sequence (Q8K209 26-382 limits assumed): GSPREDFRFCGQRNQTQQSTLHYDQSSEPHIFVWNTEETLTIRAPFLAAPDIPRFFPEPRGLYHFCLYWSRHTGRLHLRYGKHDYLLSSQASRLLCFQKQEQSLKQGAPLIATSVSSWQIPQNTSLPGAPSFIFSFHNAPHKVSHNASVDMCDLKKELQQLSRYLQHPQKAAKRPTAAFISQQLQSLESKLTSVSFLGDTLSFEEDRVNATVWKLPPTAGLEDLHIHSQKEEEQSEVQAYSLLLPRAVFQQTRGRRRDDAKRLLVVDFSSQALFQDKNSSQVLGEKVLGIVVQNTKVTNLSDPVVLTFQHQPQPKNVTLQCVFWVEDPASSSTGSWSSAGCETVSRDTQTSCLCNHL

Peptide Number (Exp1) [1]: 19 peptides
Peptide Number (Exp2) [1]: 20 peptides
Peptide Number (Exp3) [1]: 17 peptides
Peptide Number (Exp1) [2]: 21 peptides
Peptide Number (Exp2) [2]: 22 peptides
Peptide Number (Exp3) [2]: 23 peptides
Molecule: biotinylated GPR56^N-mFc-biotag protein (Fc fusion)

Peptide Number (Exp1) (GPR56^N; experiment 1): 21
Peptide Number (Exp2) (GPR56^N; experiment 2): 22
Peptide Number (Exp3) (GPR56^N; experiment 3): 23
Molecule: Plectin (Plec): protein from mixed glial cell lysate purified with GPR56^N

Molecule: fibronectin [reference compound]
OPC proliferation ([3]; wt OPCs, fibronectin as specificity control in place of laminin-111, with recombinant TG2): inert

B1: TG2-W241A: transamidation-inactive, enzymatic dead mutant TG2 protein (protein)
chain: MAEELVLERCDLELETNGRDHHTADLCREKLVVRRGQPFWLTLHFEGRNYEASVDSLTFSVVTGPAPSQEAGTKARFPLRDAVEEGDWTATVVDQQDCTLSLQLTTPANAPIGLYRLSLEASTGYQGSSFVLGHFILLFNAWCPADAVYLDSEEERQEYVLTQQGFIYQGSAKFIKNIPWNFGQFEDGILDICLILLDVNPKFLKNAGRDCSRRSSPVYVGRVVSGMVNCNDDQGVLLGRADNNYGDGVSPMSWIGSVDILRRWKNHGCQRVKYGQCWVFAAVACTVLRCLGIPTRVVTNYNSAHDQNSNLLIEYFRNEFGEIQGDKSEMIWNFHCWVESWMTRPDLQPGYEGWQALDPTPQEKSEGTYCCGPVPVRAIKEGDLSTKYDAPFVFAEVNADVVDWIQQDDGSVHKSINRSLIVGLKISTKSVGRDEREDITHTYKYPEGSSEEREAFTRANHLNKLAEKEETGMAMRIRVGQSMNMGSDFDVFAHITNNTAEEYVCRLLLCARTVSYNGILGPECGTKYLLNLNLEPFSEKSVPLCILYEKYRDCLTESNLIKVRALLVEPVINSYLLAERDLYLENPEIKIRILGEPKQKRKLVAEVSLQNPLPVALEGCTFTVEGAGLTEEQKTVEIPDPVEAGEEVKVRMDLLPLHMGLHKLVVNFESDKLKAVKGFRNVIIGPA
OPC proliferation, wild type TG2 vs enzymatic dead mutant ([3]; versus control, One-way ANOVA, Tukey post-hoc): failed to promote OPC proliferation and n.s.
